Measurements taken from article PMC12572689, “Characterization of the Specific Binding Between Aptamers and Cytochrome c With Pressure‐Assisted Capillary Electrophoresis Frontal Analysis”.

B1: Apt40 (ssDNA)
DNA: CCGTGTCTGGGGCCGACCGGCGCATTGGGTACGTTGTTGC
B2: Apt76 (ssDNA)
DNA: ATCGATAAGCTTCCAGAGCCGTGTCTGGGGCCGACCGGCGCATTGGGTACGTTGTTGCCGTAGAATTCCTGCAGCC
B3: Apt61 (ssDNA)
DNA: AGTGTGAAATATCTAAACTAAATGTGGAGGGTGGGACGGGAAGAAGTTTATTTTTCACACT

Experiments:
[1] = molecular target: T1, cytochrome c (Equus caballus (equine heart), UniProt P00004 2-105); assay: PACE-FA; mobility correction; n=1.10; 10 mM NH4OAc pH 6.8 (fluorescence: 2.0 uM cyt c, 2.0-14.0 uM aptamer, 30 min); PACE-FA: NH4OAc pH 6.8, HPC-coated capillary; temperature not stated; conditions: protein: commercial; tags: none
T1 sequence (P00004 2-105): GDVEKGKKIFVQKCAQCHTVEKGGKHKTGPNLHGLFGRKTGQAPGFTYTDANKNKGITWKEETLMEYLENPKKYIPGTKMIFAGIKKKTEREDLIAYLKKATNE

[2] = molecular target: T1, cytochrome c; assay: PACE-FA; raw data, uncorrected; n=1.06; 10 mM NH4OAc pH 6.8 (fluorescence: 2.0 uM cyt c, 2.0-14.0 uM aptamer, 30 min); PACE-FA: NH4OAc pH 6.8, HPC-coated capillary; temperature not stated; conditions: protein: commercial; tags: none
[3] = molecular target: T1, cytochrome c; assay: PACE-FA; specific binding fit; n=0.84; lambda 2.83e4 M-1; 10 mM NH4OAc pH 6.8 (fluorescence: 2.0 uM cyt c, 2.0-14.0 uM aptamer, 30 min); PACE-FA: NH4OAc pH 6.8, HPC-coated capillary; temperature not stated; conditions: protein: commercial; tags: none
[4] = molecular target: T1, cytochrome c; assay: fluorescence titration; cyt c emission at 292 nm; Benesi-Hildebrand; 10 mM NH4OAc pH 6.8 (fluorescence: 2.0 uM cyt c, 2.0-14.0 uM aptamer, 30 min); PACE-FA: NH4OAc pH 6.8, HPC-coated capillary; temperature not stated; conditions: protein: commercial, tags: none
[5] = molecular target: T1, cytochrome c; assay: PACE-FA; mobility correction; n=1.85; 10 mM NH4OAc pH 6.8 (fluorescence: 2.0 uM cyt c, 2.0-14.0 uM aptamer, 30 min); PACE-FA: NH4OAc pH 6.8, HPC-coated capillary; temperature not stated; conditions: protein: commercial; tags: none; multi-loop structure (as claimed in text)
[6] = molecular target: T1, cytochrome c; assay: PACE-FA; raw data, uncorrected; n=2.05; 10 mM NH4OAc pH 6.8 (fluorescence: 2.0 uM cyt c, 2.0-14.0 uM aptamer, 30 min); PACE-FA: NH4OAc pH 6.8, HPC-coated capillary; temperature not stated; conditions: protein: commercial; tags: none; multi-loop structure (as claimed in text)
[7] = molecular target: T1, cytochrome c; assay: PACE-FA; specific binding fit; n=1.25; lambda 6.90e4 M-1; 10 mM NH4OAc pH 6.8 (fluorescence: 2.0 uM cyt c, 2.0-14.0 uM aptamer, 30 min); PACE-FA: NH4OAc pH 6.8, HPC-coated capillary; temperature not stated; conditions: protein: commercial; tags: none; multi-loop structure (as claimed in text)
[8] = molecular target: T1, cytochrome c; assay: PACE-FA; mobility correction; n=1.30; 10 mM NH4OAc pH 6.8 (fluorescence: 2.0 uM cyt c, 2.0-14.0 uM aptamer, 30 min); PACE-FA: NH4OAc pH 6.8, HPC-coated capillary; temperature not stated; conditions: protein: commercial; tags: none
[9] = molecular target: T1, cytochrome c; assay: PACE-FA; raw data, uncorrected; n=1.47; 10 mM NH4OAc pH 6.8 (fluorescence: 2.0 uM cyt c, 2.0-14.0 uM aptamer, 30 min); PACE-FA: NH4OAc pH 6.8, HPC-coated capillary; temperature not stated; conditions: protein: commercial; tags: none
[10] = molecular target: T1, cytochrome c; assay: PACE-FA; specific binding fit; n=1.22; lambda 7.11e3 M-1; 10 mM NH4OAc pH 6.8 (fluorescence: 2.0 uM cyt c, 2.0-14.0 uM aptamer, 30 min); PACE-FA: NH4OAc pH 6.8, HPC-coated capillary; temperature not stated; conditions: protein: commercial; tags: none

Binder	Ka [1]	Ka [2]	Ka [3]	Ka [4]	Ka [5]	Ka [6]	Ka [7]	Ka ([4]; multi-loop structure (as claimed in text))	Ka [8]	Ka [9]	Ka [10]
B1	545000 M⁻¹	2.01e+06 M⁻¹	840000 M⁻¹	151000 M⁻¹							
B2					676000 M⁻¹	1.65e+06 M⁻¹	1.53e+06 M⁻¹	868000 M⁻¹			
B3				625000 M⁻¹					643000 M⁻¹	1.06e+06 M⁻¹	712000 M⁻¹
